Target: AMBRA1^WD40 (UniProt Q9C0C7)
Experiment: co-IP; AMBRA1 antibody (Proteintech) coupled to Dynabeads, mixed with lysate of SHSY5Y cells overexpressing AMBRA1 constructs; washed; western blot for the protein of interest

Chain of UniProt Q9C0C7 (Q9C0C7 whole entry): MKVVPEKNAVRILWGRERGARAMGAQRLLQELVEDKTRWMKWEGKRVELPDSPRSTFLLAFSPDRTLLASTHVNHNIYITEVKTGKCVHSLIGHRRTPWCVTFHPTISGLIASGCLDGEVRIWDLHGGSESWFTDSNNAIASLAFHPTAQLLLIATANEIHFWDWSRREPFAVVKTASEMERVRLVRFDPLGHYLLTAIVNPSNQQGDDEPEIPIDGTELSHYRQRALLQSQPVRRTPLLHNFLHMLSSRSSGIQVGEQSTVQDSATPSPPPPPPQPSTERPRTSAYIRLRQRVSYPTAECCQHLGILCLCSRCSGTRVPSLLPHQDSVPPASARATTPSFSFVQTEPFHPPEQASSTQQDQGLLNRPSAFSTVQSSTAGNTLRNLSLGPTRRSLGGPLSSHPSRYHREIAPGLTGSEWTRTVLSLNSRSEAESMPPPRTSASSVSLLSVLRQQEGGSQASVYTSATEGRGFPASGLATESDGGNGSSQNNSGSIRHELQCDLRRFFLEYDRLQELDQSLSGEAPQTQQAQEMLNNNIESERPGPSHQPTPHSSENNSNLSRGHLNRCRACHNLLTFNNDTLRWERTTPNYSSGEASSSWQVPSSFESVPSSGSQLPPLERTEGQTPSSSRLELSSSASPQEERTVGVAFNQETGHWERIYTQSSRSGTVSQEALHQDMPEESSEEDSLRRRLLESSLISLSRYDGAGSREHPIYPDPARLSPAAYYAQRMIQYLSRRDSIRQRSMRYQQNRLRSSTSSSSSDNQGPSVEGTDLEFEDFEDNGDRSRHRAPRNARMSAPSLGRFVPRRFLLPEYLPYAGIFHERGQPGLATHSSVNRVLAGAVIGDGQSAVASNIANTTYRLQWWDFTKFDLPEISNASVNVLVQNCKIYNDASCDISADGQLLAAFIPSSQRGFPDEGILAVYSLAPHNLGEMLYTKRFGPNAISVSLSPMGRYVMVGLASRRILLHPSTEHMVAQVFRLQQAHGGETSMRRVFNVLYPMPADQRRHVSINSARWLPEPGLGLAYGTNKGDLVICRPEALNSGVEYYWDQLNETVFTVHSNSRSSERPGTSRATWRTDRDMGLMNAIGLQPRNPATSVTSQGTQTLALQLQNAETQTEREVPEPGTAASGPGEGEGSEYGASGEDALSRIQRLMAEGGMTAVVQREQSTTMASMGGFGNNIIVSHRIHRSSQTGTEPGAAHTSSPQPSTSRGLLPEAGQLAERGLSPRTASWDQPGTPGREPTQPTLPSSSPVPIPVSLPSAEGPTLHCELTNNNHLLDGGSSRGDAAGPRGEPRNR

fold change of the AMBRA1/DDB1 interaction against AMBRA1^WT: 0.5 fold
Substance: DDB1 (from UniProt Q16531 1-1140) (natural protein)
